In the DeepSol protein solubility set:

Assay: soluble on expression in E. coli; label from the status in PepcDB or PDB records

Sequence | soluble on expression in E. coli
MTDWLYRYPKLYPGFLLKRYKRFFADVQLTSGEVVTAHCPNTGPMTGVSKIGSPVQLSQSDNPNRKLAYTLELIQVQEQEPTWVGVNTALPNRVIKLALEKFLFPELRDYTQVKGEVIYGKDKKSRVDFYLTGSEKQSPIYLEVKNTTWTQGNLALFPDTETTRGQKHLRELMEVLPHSRAVMLYFINRGDCPEFAPGDSTDPVYGKLLRQAITVGLEVLPCRFDVSPEGIRYLGLAKLKT | not soluble
MPRLILASTSPWRRALLEKLTIPFECAAPDVDETPMPGEAPRQLVLRLAQAKAQSLAARFPNHLIIGSDQICVLDGEITGKPLTEEKARQQLAKASGNIVTFYTGLALYNSASGHLQTEVEPFDVHFRHLSEAEIDDYVRKEHPLHCAGSFKSEGLGIALFERLEGRDPNTLIGLPLIALCQMLRREGFNPLQQ | not soluble
QVAKNPAPQAVEQAQSSSSLPAPSFADELDPVPGQQQASAKTITVTTDVLTLSIDTVGGDVVHADLNQYSAELDSSDPFVLLKDTQGHQFIAQSGLVGPQGIDLSSSNRPHYNVSADSFTLADGQDELRVPMTFTANGIEYTKTYVLKRGSYALNVEYDVANNSGNNATFGMYAHLRQNLMDAGGSITMPTYRGGAYSTEDTRYKKYSFEDMQDRNLSINLADGQGWAAMIQHYFAAAWIPRNEPGTNLYTRVIGNLGDIGVRMPNKTIATGDQAKFEATLWVGPKLQQEMAAVAPNLDLVVDYGWLWFIAKPLHS | not soluble
MGSDKIHHHHHHLKICLSCSARFTDSGWRCPVCFSTPEQVDGFLSFAPAQAKSDEGFQPHHFNELAQAEAEHFWFRSRNRLIIWALHRFFPDARKFLEIGCGTGFVLSGIAQDNPRLEISGSEIHSAGLSHAADRARNATLFQMDARDIPFDSEFDVIGAFDVLEHIEEDSQVLLQMFRAISPGGGMIVTVPQHRFLWSQQDEHACHVRRYEAQELQDKVEKAGFRVEKATSFVSLLLPLMFISRLSKRKPVENYDPTQEFRIKKWVNTILEGILDLERLMIRGRVSFPMGGSRLLIARKPAGA | not soluble
GPGSMSTQLISGGEDGSHSQLMDLVLTNCSRPQSRASDNKQSTDGVVRLTSYVDLPNRDTLLPPIAEPKGGVPETSETLFPRRLGFDMIGVSSVSEEMLRDLYEVFDVHQSGGVERGVLREMMRSGFSHFGAPCSDRDLDRFFENVTPFRVRRRRTPKEGEVDVVPFNEFCVAFLSWLRR | soluble
MSLIKPDHPRLSILRQCALVSLSRSSFYYQEKGESPLNLKLMELIDRQFMETPFYGARQMARHLRNHEGYCVGRKKICRLMAKMGLVPIYQRPRTTKPHPEHVKYPYLLRDLVIDKPNQVWCTDITYIPMRRGFLYLVAIMDWHSRCVLSWRLSNTMEADFCVEALEEALNKFGKPEIFNTDQGSQFTSQSFTETLKEADIKISMDGKGAWTDNVFIERLWRSLKYECVYLHAFETGSKAHHGIGHWIQFYNERRPHSSLGGLSPNSVYETELWSEAAEGHHHHHH | not soluble
ADVAIVGGGFVGLWTAITLKQLEPDARVLLLEQDVCGGGASGRNGGFVMSWWPKIGTLLGFCSEAQARFLGESAERAIQELGEFCARHDIDAHFQQKGWLWTATTAHHLDAWNDTLAACERLGVSPFERLDASEVARRTGSPVHLAGVFERSNATVQPALLVQGMRRVALALGVEIHERCGVSQIVPGQPAQLLSAGARVQAKAVVLATNAWSAALPRLSRLIVPVNSSIAVTEAIPQRLERIGWTGGEAITDSQLMVDYYRTTRDGRIAFGKGTGALSYGSRIGRVFDVDRESLALTEADFRRTYPSLGDIPLVDGWSGPIDRTYDSLPVFGRLHENIHYGIGWSGNGVGPSRLGGRILASLALGRDDPWSR | not soluble
MNRLPRIEQYGLIGDTQTSAHVCDDGSIDWLCLPRFDSPAVFASLLGTQKHGSWQISPAPSTGRSGPEKVTERRYRGDSLVLESVWRTPTGSVRVLDFMPPRDGTPQVIRIVEGLTGDVEMLSAMRPRPGYLEHHHHHH | not soluble
LMRSPKQKQLEVDHANKTNLKPKAIVNCDLFQLGDYCVFTFKKLSFKQRFKQDFFARSKFSFRS | soluble
VADVVPLDANNRILVHQGLMRIRAGRARPGLRAILEVARREPARITSTDLGFILGPRLNAAGRLDDMSLGIECLLCDDPTRAREMAVQLDELNQDRKSIEQGMQREALAQLKDLPMESMPFGLCLFDAEWHQGVIGIL | not soluble
GPQDPDKRRKTLVIIEKTYSLLLDVEDYERRYLLSLEEERPALMDDRKHKICSMYDNLRGKLPGQERPSDDHFVQIMCIRKGKRMVARILPFLSTEQAADILMTTARNLPFLIKKDAQDEVLPCLLSPFSLLLYHLPSVSITSLLRQLMNLPQSAATPALSNPHLTAVLQNKFGLSLLLILLSRGEDLQSSDPATESTQNNQWTEVMFMATRELLRIPQAALAKPISIPTNLVSLFSRYVDRQKLNLLETKLQLVQ | soluble
GFGPHQRLEKLDSLLSDYDILSLSNIQQHSVRKRDLQTSTHVETLLTFSALKRHFKLYLTSSTERFSQNFKVVVVDGKNESEYTVKWQDFFTGHVVGEPDSRVLAHIRDDDVIIRINTDGAEYNIEPLWRFVNDTKDKRMLVYKSEDIKNVSRLQSPKVCGYLKVDNEELLPKGLVDREPPEGKT | not soluble
MIDKIVFEEDEEYDLTQDSFRYGRVTTGASYNLVTGKIPETVLEQVKAKDDENDDVEFEMDHLEDKEAVQKTKTFDELYESQMPKYFEYQSNFSEVNGIWTLLFDQNHYENMSTFELQAAICAALNSKHYMMICVGIDAFNAVTGVEMSAKDRVVFRMALTRAVAGEFQPPLVKVAPKQLTGVSPMKRDISEVTSSIDVLFIPVIGVTDEVENNRFLIVVRVKEISDKVYQISSGRIYNELEGRVVEMSDMNEAFHKLIVEQSISDIQTRRGSMFMLEPEPFLEDSPVIFTGSKEILRENHEIPNILKENSTERSLSQSLLNLLDIQNIGWIFFGTALSCCIYNNAIKPLVK | not soluble
MGSDKIHHHHHHMSNDIDLIKRLGPSAMDQIMLYLAFSAMRTSGHRHGAFLDAAATAAKCAIYMTYLEQGQNLRMTGHLHHLEPKRVKIIVEEVRQALMEGKLLKTLGSQEPRYLIQFPYVWMEQYPWIPGRSRIPGTSLTSEEKRQIEHKLPSNLPDAQLVTSFEFLELIEFLHKRSQEDLPPEHRMELSEALAEHIKRRLLYSGTVTRIDSPWGMPFYALTRPFYAPADDQERTYIMVEDTARYFRMMKDWAEKRPNAMRALEELDVPPERWDEAMQELDEIIRTWADKYHQVGGIPMILQMVFGRKED | not soluble
MSLGKISFPVGVLFSGSGSYAQPARQGFRGAMTAIAHINASRRFPFNLQAHHFDPAGEADRYASLCRQLIRERDVRHVVGCTTSWSRKEAIPVVEKLDALLWYPCVYEGFEVSENLIYVAACANQHLVPLLDYIAPRFGSRAMLVGANYIWGWENNRIARDILHRSGGEVLGERFVSIGDTDIDHLIDEVREKRPDFILNNLIGPSSYAFLRAYQALGEADDRFRPEKCPIISCNLYEGEITGLGHAAAGHFTVSCYFRTLQSPENDSFLKTLAALDPGAIVDAFYAQAFSAVVMIAEAIMRCGSDDADLVRGALRGQSVDTPLGAISVDRWTNHVELPAHIGRARADGSFEIVKREGHHHHHH | not soluble
MATLTEDDVLEQLDAQDNLFSFMKTAHSILLQGIRQFLPSLFVDNDEEIVEYAVKPLLAQSGPLDDIDVALRLIYALGKMDKWLYADITHFSQYWHYLNEQDETPGFADDITWDFISNVNSITRNATLYDALKAMKFADFAVWSEARFSGMVKTALTLAVTTTLKELTP | soluble
VRQRTIVCPLIQNDGAYLLCKMADDRGVFPGQWAISGGGVEPGERIEEALRREIREELGEQLLLTEITPWTFSDDIRTKTYADGRKEEIYMIYLIFDCVSANREVKINEEFQDYAWVKPEDLVHYDLNVATRKTLRLKGLL | soluble
MYQVIKMYGDWEPWWFIDGWQDDIIDEQQFSDWQEALDYFNQEWQRMKAIFPSYHSQKNLLATFWEKEDKRWCEDCDEDLQQFHSLLLLKNKDIVPSNNYIPEFEQRNDSPQVAYLCKLNLLEHHHHHH | soluble
